Assays:
[1] = tested on: human gastric cancer PDX-GA0006 model; test: In vivo efficacy experiment of subcutaneous transplanted tumor in mouse PDX model (Example 2); design: species or system BALB/c nude mice; conditions: tumors weighed after euthanasia on D51; Ab 40 mg/kg i.p. 3 times a week; epirubicin 1.25 mg/kg, oxaliplatin 3.25 mg/kg, fluorouracil 56.25 mg/kg once a week
Text: A 2×2×2 mm gastric cancer PDX tumor mass was inoculated into BALB/c mice (the day of inoculation was DO). On D27 of subcutaneous inoculation, the tumor volume was 128 mm^3 on average, thereby obtaining the human gastric cancer PDX-GA0006 model, or abbreviated as PDX model. The tumor-forming mice were randomly divided into 6 groups, namely solvent group, antibody group (Ab group), EOF group, EOF+Ab group, OF group, OF+Ab group. During the experiment, the general clinical symptoms of the animals were observed, and the body weight and tumor diameter were measured twice a week. On D51, the mice were euthanized. The manners of administration are listed as follows:
Solvent group: intraperitoneal injection, 3 times a week.
Ab group: antibody against CLD18A2 prepared in Example 1, 40 mg/kg, intraperitoneal injection, 3 times a week.
EOF group: a combination of epirubicin hydrochloride for intraperitoneal injection (1.25 mg/kg)+oxaliplatin for injection (3.25 mg/kg)+fluorouracil injection (56.25 mg/kg), once a week; solvent, intraperitoneal injection, 3 times a week.
EOF+Ab group: EOF (epirubicin hydrochloride (1.25 mg/kg)+oxaliplatin for injection (3.25 mg/kg)+fluorouracil injection (56.25 mg/kg)), once a week, the antibody against CLD18A2 (40 mg/kg), 3 times a week. […]

[2] = tested on: human gastric cancer PDX-GA0006 model; test: Analysis of the administration amount of antibody in tumor-forming PDX mice (Example 3); format: in vivo, BALB/c nude mice; conditions: AB3 group: 100 mg/kg i.p. 3 times a week for 2 weeks, versus 40 and 70 mg/kg; FIG. 5
Description: (§1) According to Example 2, different dosage of antibodies were administered to tumor-forming mice. The administration manners are listed as follows:
(§2) 1. AB1, administered with the antibody against CLD18A2 prepared in Example 1, at a dosage of 40 mg/kg, intraperitoneal injection, 3 times a week for 2 weeks.
(§3) 2. AB2, administered with the antibody against CLD18A2 prepared in Example 1, at a dosage of 70 mg/kg, intraperitoneal injection, 3 times a week for 2 weeks.
(§4) 3. AB3, administered with the antibody against CLD18A2 prepared in Example 1, at a dosage of 100 mg/kg, intraperitoneal injection, 3 times a week for 2 weeks.

[3] = Body weight of mice given different dosages of antibody (Example 3); format: in vivo, BALB/c nude mice; conditions: 40, 70, 100 mg/kg i.p. 3 times a week for 2 weeks; FIG. 6
Description: as §1, §2, §3, §4

B1: Ab: humanized antibody targeting CLD18A2, heavy chain variable region SEQ ID NO: 15, light chain variable region SEQ ID NO: 13 (antibody, V domains shown)
VH: QVQLQESGPGLIKPSQTLSLTCTVSGGSISSGYNWHWIRQPPGKGLEWIGYIHYTGSTNYNPALRSRVTISVDTSKNQFSLKLSSVTAADTAIYYCARIYNGNSFPYWGQGTTVTVSS
VL: DIVMTQSPDSLAVSLGERATINCKSSQSLFNSGNQKNYLTWYQQKPGQPPKLLIYWASTRESGVPDRFSGSGSGTDFTLTISSLQAEDVAVYYCQNAYSFPYTFGGGTKLEIKR
**Q.** Which results are given for B1?
**A.** tumor inhibition rate compared with the solvent group (tumor weight) [1]: 1.21%; anti-tumor effects (increase in tumor volume) at different dosages [2]: better anti-tumor effects; change in body weight of mice [3]: no significant change
